This is an account of results in patent publication US9212231B2, “TRAIL R2-specific multimeric scaffolds” (MEDIMMUNE, LLC, dated 2015).

Assay [1] deals with Murine CD40L on the Th2 cell line D10.G4.1 (murine) (UniProt P27548).
For assay [2], the target named is TRAIL R2-Fc fusion protein (human) (UniProt O14763). Put plainly: competition ELISA on plate-coated A9(1C12).
Assay [3] addresses TRAIL R2 expressed on the cell surface (human, UniProt O14763). The experiment in a line: cell-based or functional assay.
Assay [4] deals with TRAIL R2-Fc fusion protein (human) (UniProt O14763). Put plainly: competition ELISA: inhibition of binding of 0.75 nM biotinylated TRAIL R2-Fc to plate-coated A9(1C12). (ELISA stands for enzyme-linked immunosorbent assay.)
Assay [5] addresses TRAIL R2 (recombinant, form not given) (human, UniProt O14763, biotin (in the capture ELISA and the competition ELISA of Example 14)). Put plainly: SPR (ProteOn XPR36), TRAIL R2 immobilised, equilibrium analysis.

In general, IC50 refers to the concentration at which inhibition is half-maximal. By Kd is commonly meant the free concentration of one partner at which half of the binding sites on the other are occupied at equilibrium, for simple one-to-one binding.

TRAIL R2-Fc fusion protein (human), sequence (O14763 56-182 limits assumed): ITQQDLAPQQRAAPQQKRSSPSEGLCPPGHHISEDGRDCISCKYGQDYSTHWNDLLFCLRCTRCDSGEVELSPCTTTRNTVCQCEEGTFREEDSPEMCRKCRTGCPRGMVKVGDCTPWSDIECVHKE

As to MR1 antibody, in assay [1], the IC50, inhibition of Murine CD40L-induced CD86 expression on CD19 gated B cells came to 100000 nM.

B1: A3(1E11) (designed binder)
chain: SGGGGSAIEVKDVTDTTALITWAKPWVDPPPLWGCELAYGIKDVPGDRTTIDLQQKHTAYSIGNLKPDTEYEVSLICFDPYGAKSNPAKETFTTGGGGSGGGGSGGGGSAIEVKDVTDTTALITWAKPWVDPPPLWGCELAYGIKDVPGDRTTIDLQQKHTAYSIGNLKPDTEYEVSLICFDPYGAKSNPAKETFTTGGGGSGGGGSGGGGSAIEVKDVTDTTALITWAKPWVDPPPLWGCELAYGIKDVPGDRTTIDLQQKHTAYSIGNLKPDTEYEVSLICFDPYGAKSNPAKETFTTGGGGSGGGGSGGGGSAIEVKDVTDTTALITWAKPWVDPPPLWGCELAYGIKDVPGDRTTIDLQQKHTAYSIGNLKPDTEYEVSLICFDPYGAKSNPAKETFTTGGGGSGGGGSGTLGHHHHHHHH
In assay [2], B1 showed a fold higher affinity relative to the monomeric A1 protein of 30 to 40 fold and a fold lower IC50 than the monomer A1 greater than 30 fold. For the same molecule, in assay [3], the “EC50, killing of H2122 cells” value amounted to 0.013 nM and the “Maximum Inhibition %, H2122 cells” value was found to be 91%. Moreover, the concentration for half-maximal inhibition (IC50) in assay [4] stood at 0.4 nM.

B2: A1(1E11) (designed binder)
chain: AIEVKDVTDTTALITWAKPWVDPPPLWGCELAYGIKDVPGDRTTIDLQQKHTAYSIGNLKPDTEYEVSLICFDPYGAKSNPAKETFTTGGGTLGHHHHHHHH
For the molecule B2, in assay [5], the “Fold Improvement (Kd, against lead clone 1C12)” value was 40 fold and the equilibrium dissociation constant (Kd) came out at 103 nM. The IC50 in assay [4] came to 16 nM.

B3: A2(1E11) (designed binder)
chain: SGGGGSAIEVKDVTDTTALITWAKPWVDPPPLWGCELAYGIKDVPGDRTTIDLQQKHTAYSIGNLKPDTEYEVSLICFDPYGAKSNPAKETFTTGGGGSGGGGSGGGGSAIEVKDVTDTTALITWAKPWVDPPPLWGCELAYGIKDVPGDRTTIDLQQKHTAYSIGNLKPDTEYEVSLICFDPYGAKSNPAKETFTTGGGGSGGGGSGTLGHHHHHHHH
Regarding B3, in assay [2], the fold higher affinity relative to the monomeric A1 protein fell in the range of 30 to 40 fold and the fold lower IC50 than the monomer A1 was greater than 30 fold. The molecule further had an IC50 in assay [4] of 0.5 nM.
